Changes are numbered by the printed parent chain. Where two headings read alike, the source gives them in different places.
Tests used:
Assay in all cases: SPR
[1] = target: T1, RBD (residues 334–527 of the SARS-CoV-2 spike glycoprotein) (SARS-CoV-2, UniProt P0DTC2 334-527)
[2] = target: T1, RBD (residues 334–527 of the SARS-CoV-2 …); remark: listed apart in the source
[3] = target: T1, RBD (residues 334–527 of the SARS-CoV-2 …); remark: listed apart in the source

B1: 2196_CDRL3_RP (antibody, V domains shown)
VH: QMQLVQSGPEVKKPGTSVKVSCKASGFTFMSSAVQWVRQARGQRLEWIGWIVIGSGNTNYAQKFQERVTITRDMSTSTAYMELSSLRSEDTAVYYCAAPYCSSISCNDGFDIWGQGTMVTVSS
VL: not shown
[1]
  Kd: 204 nM
[2]
  Kd: 203 nM
[3]
  koff: 0.12 s⁻¹

B2: DMAb-2196_CDRL3_P (antibody, V domains shown)
VH: B1 VH
VL: not shown
[2]
  Kd: 88.5 nM
[3]
  koff: 0.1 s⁻¹

B3: 2196_CDRL1_des2 (antibody, V domains shown)
VH: B1 VH
VL: EIVLTQSPGTLSLSPGERATLSCRASQTISNSYVAWYQQKPGQAPRLLIYGASSRATGIPDRFSGSGSGTDFTLTISRLEPEDFAVYYCQHYGSSRGWTFGQGTKVEIK
[3]
  koff: 0.0216 s⁻¹

B4: 2196 WT (recombinant mAb COV2-2196) (antibody, V domains shown)
VH: B1 VH
VL: not shown
[3]
  koff: 0.0133 s⁻¹

B5: 2196_CDRL1_des1 (antibody, V domains shown)
VH: B1 VH
VL: B3 VL with S32N, Y33F
[2]
  Kd: 47.6 nM
[3]
  koff: 0.0823 s⁻¹

B6: 2196_CDRL3_GP (antibody, V domains shown)
VH: B1 VH
VL: not shown
[3]
  koff: 0.0133 s⁻¹

B7: 2196 HC + 2072 LC (antibody, V domains shown)
VH: B1 VH
VL: not shown
[3]
  koff: 0.0309 s⁻¹

B8: 2196_CDRL3_Q (antibody, V domains shown)
VH: B1 VH
VL: not shown
[3]
  koff: 0.0171 s⁻¹

Source: paper PMC11764276 (2024)
